We go through 17 molecules from patent publication US20240108738A1 (Bicycle, published 2024).

For the assay, the target named is T1, Human NKp46 Fc tag (Acro Biosystems, NC1-H5257) (human, UniProt O76036 22-255).
T1 construct: bought; also called Fc-tagged human NKp46
The assay is described as follows: SPR Method 1 and/or 2. Here is the method:
The SPR analysis was run at 25° C. and a flow rate of 50 μl/min with 60 seconds association and 200-400 seconds dissociation time. Data were corrected for DMSO excluded volume effects. All data were double-referenced for blank injections and reference surface using standard processing procedures and data processing and kinetic fitting were performed using Scrubber software, version 2.0c (BioLogic Software). Data were fitted using simple 1:1 binding model allowing for mass transport effects where appropriate.
For analysis of peptide binding, a Biacore 8k+ instrument was used with a CM5 chip (Cytiva). All experiments were carried out at 25° C. Anti-human IgG (Fc) antibody (Cytiva) was immobilized on all flow cells by standard amine coupling chemistry. The running buffer was HBS-N(Cytiva, 10 mM HEPES, 0.15 M NaCl, pH 7.4) and the flow rate was 10 μL/min. The carboxymethyl dextran surface was activated with a 1:1 ratio of 0.4 M 1-ethyl-3-(3-dimethylaminopropyl) carbodiimide hydrochloride (EDC)/0.1 M N-hydroxy succinimide (NHS) (Cytiva) for 420s. […] Residual activated groups were blocked with a 420 s injection of 1 M ethanolamine (pH 8.5). The final surface density was 3000-5000 RU. Fc-tagged human NKp46 was diluted to 0.1 μM in HBS-N and was captured on flow cell 2 only of the sensor chip at a flow rate of 10 μL/min to 500-1000 RU. The buffer was then changed to PBS-P+(Cytiva) supplemented with 2% DMSO. […] The flow rate was 50 μL/min with 60 s association and 400 s dissociation. Data were corrected for DMSO volume exclusion effects. All data were double-referenced against blank injections and reference surface response using standard processing procedures. Data processing and kinetic fitting was performed using Biacore Insight Evaluation Software with Extended Screening and Characterization Extension (Cytiva). Data were fitted using steady state affinity 1:1 binding model to determine KD. Data were fitted using kinetic 1:1 binding model to determine kinetic constants where appropriate.

Numbered stars: 1 amine (or outer) side, 2 acyl side, 3 side chain; on linkers, the order of the positions; unused ones are H or OH. Bridge positions count the residues as written; N and C are the ends. Square brackets hold non-standard residues; d marks the D form. Ends that are not written are not given here. * marks the point of attachment. TATA = O=C(CC[*:1])N1CN(C(=O)CC[*:2])CN(C(=O)CC[*:3])C1; Tyr(2-F) = N[C@@H](Cc1ccc(O)cc1F)C(=O)O; Dopa = N[C@@H](Cc1ccc(O)c(O)c1)C(=O)O; 4Pal = N[C@@H](Cc1ccncc1)C(=O)O; dCha = N[C@H](CC1CCCCC1)C(=O)O; Cba = N[C@@H](CC1CCC1)C(=O)O; Pen = CC(C)(S)[C@H](N)C(=O)O; dNle = CCCC[C@@H](N)C(=O)O; dNva = CCC[C@@H](N)C(=O)O; NMeA = CN[C@@H](C)C(=O)O; Pent4ynoyl = C#CCCC(=O)*

T1 sequence (O76036 22-255 limits assumed): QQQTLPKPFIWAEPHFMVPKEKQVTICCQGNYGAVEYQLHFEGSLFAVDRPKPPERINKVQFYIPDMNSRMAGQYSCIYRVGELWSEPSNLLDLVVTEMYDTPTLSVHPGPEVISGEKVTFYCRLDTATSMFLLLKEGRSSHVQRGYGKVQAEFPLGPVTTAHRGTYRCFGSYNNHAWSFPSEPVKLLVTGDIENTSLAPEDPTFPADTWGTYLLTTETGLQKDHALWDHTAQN

On to Ac-CY[Cba]PDYL[Pen][dA]DEYC-NH2 (linker 1-8-13 via TATA, scaffold TATA) [BCY19690], for which binding was put at a Kd of 19 nM.

B1: BCY19684 (peptide)
peptide: Ac-CY[Cba]PDYLC[dK](Pent4ynoyl)DEYC-NH2
modifications: linker 1-8-13 via TATA
SMILES: C#CCCC(=O)NCCCC[C@H]1NC(=O)[C@@H]2CSCCC(=O)N3CN(CN(C3)C(=O)CCSC[C@H](NC(C)=O)C(=O)N[C@@H](Cc3ccc(O)cc3)C(=O)N[C@@H](CC3CCC3)C(=O)N3CCC[C@H]3C(=O)N[C@@H](CC(=O)O)C(=O)N[C@@H](Cc3ccc(O)cc3)C(=O)N[C@@H](CC(C)C)C(=O)N2)C(=O)CCSC[C@@H](C(N)=O)NC(=O)[C@H](Cc2ccc(O)cc2)NC(=O)[C@H](CCC(=O)O)NC(=O)[C@H](CC(=O)O)NC1=O
notes: scaffold TATA
B1 yielded a Kd of 9.4 nM. Compared with the last molecule, the Kd is about 2-fold lower.

B2: BCY19685 (peptide)
peptide: Ac-CY[Cba]PDYLC[dNle]DEYC-NH2
modifications: linker 1-8-13 via TATA
SMILES: CCCC[C@H]1NC(=O)[C@@H]2CSCCC(=O)N3CN(CN(C3)C(=O)CCSC[C@H](NC(C)=O)C(=O)N[C@@H](Cc3ccc(O)cc3)C(=O)N[C@@H](CC3CCC3)C(=O)N3CCC[C@H]3C(=O)N[C@@H](CC(=O)O)C(=O)N[C@@H](Cc3ccc(O)cc3)C(=O)N[C@@H](CC(C)C)C(=O)N2)C(=O)CCSC[C@@H](C(N)=O)NC(=O)[C@H](Cc2ccc(O)cc2)NC(=O)[C@H](CCC(=O)O)NC(=O)[C@H](CC(=O)O)NC1=O
notes: scaffold TATA
In the case of B2, the Kd came out at 10 nM.
With ACYLPDYLCGDEYCA-NH2 (linker 2-9-14 via TATA; also: scaffold: TATA, TATB or TBMT, scaffold TATA) [BCY18470] the figure was 22 nM.

B3: BCY18440 (peptide)
peptide: Ac-CY[Cba][NMeA]DYLC[dA]DEYC-NH2
modifications: linker 1-8-13 via TATA
SMILES: CC(=O)N[C@H]1CSCCC(=O)N2CN3CN(C2)C(=O)CCSC[C@H](NC(=O)[C@H](CC(C)C)NC(=O)[C@H](Cc2ccc(O)cc2)NC(=O)[C@H](CC(=O)O)NC(=O)[C@H](C)N(C)C(=O)[C@H](CC2CCC2)NC(=O)[C@H](Cc2ccc(O)cc2)NC1=O)C(=O)N[C@H](C)C(=O)N[C@@H](CC(=O)O)C(=O)N[C@@H](CCC(=O)O)C(=O)N[C@@H](Cc1ccc(O)cc1)C(=O)N[C@H](C(N)=O)CSCCC3=O
notes: scaffold TATA
Take B3: the Kd came out at 149 nM.

B4: BCY19686 (peptide)
peptide: Ac-CY[Cba]PD[Dopa]LC[dA]DEYC-NH2
modifications: linker 1-8-13 via TATA
SMILES: CC(=O)N[C@H]1CSCCC(=O)N2CN3CN(C2)C(=O)CCSC[C@H](NC(=O)[C@H](CC(C)C)NC(=O)[C@H](Cc2ccc(O)c(O)c2)NC(=O)[C@H](CC(=O)O)NC(=O)[C@@H]2CCCN2C(=O)[C@H](CC2CCC2)NC(=O)[C@H](Cc2ccc(O)cc2)NC1=O)C(=O)N[C@H](C)C(=O)N[C@@H](CC(=O)O)C(=O)N[C@@H](CCC(=O)O)C(=O)N[C@@H](Cc1ccc(O)cc1)C(=O)N[C@H](C(N)=O)CSCCC3=O
notes: scaffold TATA
Molecule B4 showed a Kd of 44 nM.

B5: BCY19689 (peptide)
peptide: Ac-[Pen]Y[Cba]PDYLC[dA]DEYC-NH2
modifications: linker 1-8-13 via TATA
SMILES: CC(=O)N[C@@H]1C(=O)N[C@@H](Cc2ccc(O)cc2)C(=O)N[C@@H](CC2CCC2)C(=O)N2CCC[C@H]2C(=O)N[C@@H](CC(=O)O)C(=O)N[C@@H](Cc2ccc(O)cc2)C(=O)N[C@@H](CC(C)C)C(=O)N[C@H]2CSCCC(=O)N3CN(CN(C3)C(=O)CCSC1(C)C)C(=O)CCSC[C@@H](C(N)=O)NC(=O)[C@H](Cc1ccc(O)cc1)NC(=O)[C@H](CCC(=O)O)NC(=O)[C@H](CC(=O)O)NC(=O)[C@@H](C)NC2=O
notes: scaffold TATA
B5 gave a dissociation constant (Kd) of 16 nM.

B6: BCY18435 (peptide)
peptide: Ac-CN[Cba]PDYLC[dA]DEYC-NH2
modifications: linker 1-8-13 via TATA
SMILES: CC(=O)N[C@H]1CSCCC(=O)N2CN3CN(C2)C(=O)CCSC[C@H](NC(=O)[C@H](CC(C)C)NC(=O)[C@H](Cc2ccc(O)cc2)NC(=O)[C@H](CC(=O)O)NC(=O)[C@@H]2CCCN2C(=O)[C@H](CC2CCC2)NC(=O)[C@H](CC(N)=O)NC1=O)C(=O)N[C@H](C)C(=O)N[C@@H](CC(=O)O)C(=O)N[C@@H](CCC(=O)O)C(=O)N[C@@H](Cc1ccc(O)cc1)C(=O)N[C@H](C(N)=O)CSCCC3=O
notes: scaffold TATA
Regarding B6, the Kd amounted to 91 nM. This Kd is about 5.7-fold higher than that of the molecule before.

B7: BCY18441 (peptide)
peptide: Ac-CY[Cba]PNYLC[dA]DEYC-NH2
modifications: linker 1-8-13 via TATA
SMILES: CC(=O)N[C@H]1CSCCC(=O)N2CN3CN(C2)C(=O)CCSC[C@H](NC(=O)[C@H](CC(C)C)NC(=O)[C@H](Cc2ccc(O)cc2)NC(=O)[C@H](CC(N)=O)NC(=O)[C@@H]2CCCN2C(=O)[C@H](CC2CCC2)NC(=O)[C@H](Cc2ccc(O)cc2)NC1=O)C(=O)N[C@H](C)C(=O)N[C@@H](CC(=O)O)C(=O)N[C@@H](CCC(=O)O)C(=O)N[C@@H](Cc1ccc(O)cc1)C(=O)N[C@H](C(N)=O)CSCCC3=O
notes: scaffold TATA
Regarding B7, the affinity, expressed as Kd, was 7.7 nM.
As for Ac-CY[Cba]PDYLC[dF]DEYC-NH2 (linker 1-8-13 via TATA, scaffold TATA) [BCY19682], the Kd stood at 9 nM.
With Ac-CY[Cba]PDYLC[dV]DEYC-NH2 (linker 1-8-13 via TATA, scaffold TATA) [BCY18443] the figure was 6.3 nM.

B8: BCY18442 (peptide)
peptide: Ac-CY[Cba]PQYLC[dA]DEYC-NH2
modifications: linker 1-8-13 via TATA
SMILES: CC(=O)N[C@H]1CSCCC(=O)N2CN3CN(C2)C(=O)CCSC[C@H](NC(=O)[C@H](CC(C)C)NC(=O)[C@H](Cc2ccc(O)cc2)NC(=O)[C@H](CCC(N)=O)NC(=O)[C@@H]2CCCN2C(=O)[C@H](CC2CCC2)NC(=O)[C@H](Cc2ccc(O)cc2)NC1=O)C(=O)N[C@H](C)C(=O)N[C@@H](CC(=O)O)C(=O)N[C@@H](CCC(=O)O)C(=O)N[C@@H](Cc1ccc(O)cc1)C(=O)N[C@H](C(N)=O)CSCCC3=O
notes: scaffold TATA
The molecule B8 yielded a Kd of 7.1 nM.

B9: BCY19683 (peptide)
peptide: Ac-CY[Cba]PDYLC[dCha]DEYC-NH2
modifications: linker 1-8-13 via TATA
SMILES: CC(=O)N[C@H]1CSCCC(=O)N2CN3CN(C2)C(=O)CCSC[C@H](NC(=O)[C@H](CC(C)C)NC(=O)[C@H](Cc2ccc(O)cc2)NC(=O)[C@H](CC(=O)O)NC(=O)[C@@H]2CCCN2C(=O)[C@H](CC2CCC2)NC(=O)[C@H](Cc2ccc(O)cc2)NC1=O)C(=O)N[C@H](CC1CCCCC1)C(=O)N[C@@H](CC(=O)O)C(=O)N[C@@H](CCC(=O)O)C(=O)N[C@@H](Cc1ccc(O)cc1)C(=O)N[C@H](C(N)=O)CSCCC3=O
notes: scaffold TATA
Molecule B9 gave a dissociation constant (Kd) of 10 nM.
Turning to Ac-CY[Cba]PD[Tyr(2-F)]LC[dA]DEYC-NH2 (linker 1-8-13 via TATA, scaffold TATA) [BCY19687], the Kd came to 28 nM.

B10: BCY18444 (peptide)
peptide: Ac-CY[Cba]PDYLC[dNva]DEYC-NH2
modifications: linker 1-8-13 via TATA
SMILES: CCC[C@H]1NC(=O)[C@@H]2CSCCC(=O)N3CN(CN(C3)C(=O)CCSC[C@H](NC(C)=O)C(=O)N[C@@H](Cc3ccc(O)cc3)C(=O)N[C@@H](CC3CCC3)C(=O)N3CCC[C@H]3C(=O)N[C@@H](CC(=O)O)C(=O)N[C@@H](Cc3ccc(O)cc3)C(=O)N[C@@H](CC(C)C)C(=O)N2)C(=O)CCSC[C@@H](C(N)=O)NC(=O)[C@H](Cc2ccc(O)cc2)NC(=O)[C@H](CCC(=O)O)NC(=O)[C@H](CC(=O)O)NC1=O
notes: scaffold TATA
B10: the affinity, expressed as Kd, was 3.9 nM.

B11: BCY18437 (peptide)
peptide: Ac-C[4Pal][Cba]PDYLC[dA]DEYC-NH2
modifications: linker 1-8-13 via TATA
SMILES: CC(=O)N[C@H]1CSCCC(=O)N2CN3CN(C2)C(=O)CCSC[C@H](NC(=O)[C@H](CC(C)C)NC(=O)[C@H](Cc2ccc(O)cc2)NC(=O)[C@H](CC(=O)O)NC(=O)[C@@H]2CCCN2C(=O)[C@H](CC2CCC2)NC(=O)[C@H](Cc2ccncc2)NC1=O)C(=O)N[C@H](C)C(=O)N[C@@H](CC(=O)O)C(=O)N[C@@H](CCC(=O)O)C(=O)N[C@@H](Cc1ccc(O)cc1)C(=O)N[C@H](C(N)=O)CSCCC3=O
notes: scaffold TATA
Molecule B11 yielded a Kd of 47 nM.
Ac-[dC]Y[Cba]PDYLC[dA]DEYC-NH2 (linker 1-8-13 via TATA, scaffold TATA) [BCY19693] yielded a Kd of 17 nM.

What is called Kd is the constant that tells how readily two partners part at equilibrium. Low readings indicate tighter binding, high ones weaker binding.
